From patent publication US20250313632A1 come the findings set out here.

Assay [1] deals with human B7-H3 expressed on A375 tumor cells (human) (UniProt Q5ZPR3). Kind of assay: flow cytometry on A375.S2 cells, MFI(647); unit from the axis Conc (nM); fit value of a flat control curve.
Assay [2] has the same target. Put plainly: flow cytometry on A375 cells, MFI(PE); unit from the axis Conc (nM); fit value of a flat control curve. (In flow cytometry, cells or beads pass a laser one at a time.)
The target is the same in assay [3]. Described as above. The source holds these as a separate data set.
Assay [4] has the same target. The assay is described as above. This is another data set of the same source.
Assay [5] shares this target. Put plainly: flow cytometry on A375 cells, MFI(647); unit from the axis Conc (nM); fit value of a flat control curve.
For assay [6], the target named is human B7-H3 protein (human) (UniProt Q5ZPR3). Put plainly: Octet (BLI) epitope binning on captured human B7-H3; competitor AHP05562.
For assay [7] the target is unchanged. Kind of assay: Octet (BLI) epitope binning on captured human B7-H3; competitor AHP06345 (self). In general terms: BLI is a label-free optical method that tracks binding on a fibre tip over time.
Assay [8] deals with human B7-H3 (4Ig) protein (his tag) (human) (UniProt Q5ZPR3). Put plainly: SPR (Biacore T200), antibody captured on Protein A chip, B7-H3 injected, 1:1 model.
The target in assay [9] is human B7-H3 protein (human) (UniProt Q5ZPR3). Kind of assay: Octet (BLI) epitope binning on captured human B7-H3; competitor CA84D.
The target of assay [10] is human B7-H3 expressed on A375 tumor cells (human) (UniProt Q5ZPR3). Kind of assay: flow cytometry on A375 cells, MFI(PE); unit from the axis Conc(nM).
The target of assay [11] is human B7-H3 protein (human) (UniProt Q5ZPR3). Kind of assay: Octet (BLI) epitope binning on captured human B7-H3; competitor 72D1D11.
Assay [12] shares this target. Put plainly: Octet (BLI) epitope binning on captured human B7-H3; competitor AHP06345.
Assay [13] deals with human B7-H3 expressed on A375 tumor cells (human) (UniProt Q5ZPR3). Put plainly: flow cytometry on A375 cells, MFI(647); unit from the axis Conc (nM).
Assay [14] shares this target. Kind of assay: flow cytometry on A375 cells, MFI(PE); unit from the axis Conc (nM).
Assay [15] has the same target. Described as above. This is another data set of the same source.
The target is the same in assay [16]. Described as above. The source holds these as a separate data set.
The target is the same in assay [17]. The description is as above. The source holds these as a separate data set.
Assay [18] has the same target. Kind of assay: flow cytometry on A375.S2 cells, MFI(647); unit from the axis Conc (nM).
The target is the same in assay [19]. Put plainly: flow cytometry on A375 cells, MFI(PE); unit from the axis Conc (nM). The source holds these as a separate data set.
For assay [20] the target is unchanged. Described as above. The source holds these as a separate data set.

Usually EC50 stands for the concentration needed to bring the measured effect to its halfway point. With hIgG1 (antibody), the EC50 in assay [1] stood at 0.044 nM; in [2], 2.1 nM; in assay [3] it was 192 nM; in [4], 36 nM; in assay [5] it was 0.066 nM.

B1: AHP06345 (antibody, V domains shown)
VH: QVQLVQSGAEVKKPGESLRISCKGSGYSFTSYWISWVRQMPGKGLEWMGRIDPSDSYTNYSPSFQGHVTISADKSISTAYLQWSSLKASDTAMYYCARHTGYYGSGIGMDVWGQGTLVTVSS
VL: HVILTQPPSVSAAPGQKVTISCSGSSSNIGNNYVSWYRQLPGTAPKLLIYDNNQRPSGIPDRFSGSKSGTSATLGITGLQTGDEADYYCATWDSSLGVVVFGGRTKLTVL
In general, Kd refers to the concentration at which binding is half-saturated. A low value points to a tighter complex. As a reminder, the koff is the rate constant with which the complex falls apart. High values mean fast dissociation, low ones slow dissociation. By kon is commonly meant the rate constant with which the complex forms. Read a low kon as slow association. For the molecule B1, the inhibition ratio in [6] was -6.36%; in assay [7], 91.8%; in assay [9] it was -3.77%. The molecule further had a Kd in assay [8] of 1.47 nM. This molecule gave a koff in assay [8] of 0.000254 s⁻¹. This molecule also gave a kon in assay [8] of 173000 M⁻¹ s⁻¹. This molecule returned a concentration giving a half-maximal response (EC50) in assay [10] of 2.7 nM.

B2: MGA017 (antibody, from a related filing, V domains shown)
VH: EVQLVESGGGLVKPGGSLRLSCAASGFTFSSYGMSWVRQAPGKGLEWVATINSGGSNTYYPDSLKGRFTISRDNAKNSLYLQMNSLRAEDTAVYYCARHDGGAMDYWGQGTTVTVSS
VL: DIQMTQSPSSLSASVGDRVTITCRASESIYSYLAWYQQKPGKAPKLLVYNTKTLPEGVPSRFSGSGSGTDFTLTISSLQPEDFATYYCQHHYGTPPWTFGQGTRLEIK
B2: the inhibition ratio in assay [6] was 91.5%; in [11], 98.9%; in [9] it was 3.65%; in assay [12] it was -0.09%. This molecule yielded a Kd in [8] of 1.79 nM. Besides, the koff in assay [8] came to 0.00132 s⁻¹. The association rate constant (kon) in [8] was 737000 M⁻¹ s⁻¹. Also, the 50% effective concentration (EC50) in [13] was 0.41 nM; in assay [10], 0.15 nM; in assay [14] it was 0.34 nM; in assay [15] it was 0.28 nM; in assay [16], 0.3 nM; in [17], 0.22 nM. The concentration for a half-maximal effect (EC50) in [18] came to 0.37 nM; in [19], 0.26 nM; in assay [20] it was 0.19 nM.
